The values that follow are results of earlier work, collected in PMC12224906.

One may read the Kd as the equilibrium constant for the complex coming apart.

This series concerns the target eIF5B CTD (Homo sapiens) (UniProt O60841).
Sequence of UniProt O60841 (O60841 1076-1220): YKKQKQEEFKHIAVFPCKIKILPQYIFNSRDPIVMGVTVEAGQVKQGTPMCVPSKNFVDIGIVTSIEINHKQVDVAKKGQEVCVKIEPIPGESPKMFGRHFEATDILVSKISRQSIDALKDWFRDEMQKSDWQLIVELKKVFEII

eIF5 CTT (from UniProt P55010): the Kd was 500 nM.
